Laboratory results as given in patent publication US20160146827A1.

Target: GST-tagged PAK1-PBD protein (Cytoskeleton Inc.), Rac/Cdc42 (p21) binding domain of human p21 activated kinase 1, residues 67-150 (human) (UniProt Q13153)
Assay: fluorescence anisotropy in solution

Chain of GST-tagged PAK1-PBD protein (Cytoskeleton Inc.), Rac/Cdc42 (p21) binding domain of human p21 activated kinase 1, residues 67-150 (human) (Q13153 67-150 limits assumed): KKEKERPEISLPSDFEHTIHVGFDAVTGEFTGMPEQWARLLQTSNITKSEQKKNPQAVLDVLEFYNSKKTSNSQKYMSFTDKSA

anisotropy (before addition): 0.19
anisotropy (bound): 0.22
increase in anisotropy on binding: 14%
Substance: LUMP-Cdc42, fusion protein of LUMP with the constitutively active GTPase Cdc42 (Q61L) connected by a ten amino acid flexible linker (…) (from UniProt Q06877 1-186; P60953 1-191)
